Test results taken from patent publication US20060177907A1 (University of California, published 2006).
Read-outs that look alike come from different tables or passages of the source. Blank lines part the entries; values can stand above or below the binder they belong to.

B2: HER3-ECD^I-II (residues 20-329), recombinant domains I and II of HER3 expressed in Drosophila S2 cells (receptor, not shown: small tags and cut ends)
chain: SEVGNSQAVCPGTLNGLSVTGDAENQYQTLYKLYERCEVVMGNLEIVLTGHNADLSFLQWIREVTGYVLVAMNEFSTLPLPNLRVVRGTQVYDGKFAIFVMLNYNTNSSHALRQLRLTQLTEILSGGVYIEKNDKLCHMDTIDWRDIVRDRDAEIVVKDNGRSCPPCHEVCKGRCWGPGSEDCQTLTKTICAPQCNGHCFGPNPNQCCHDECAGGCSGPQDTDCFACRHFNDSGACVPRCPQPLVYNKLTFQLEPNPHTKYQYGGVCVASCPHNFVVDQTSCVRACPPDKMEVDKNGLKMCEPCGGLCPK
notes: Monomer by light scattering and ultracentrifugation; The N-terminal Drosophila leader comes from the vector; the protein is secreted; also called HER3^I-II; H3 I-II
B3: HER3^I-II V110A (receptor, not shown: small tags and cut ends)
chain: SEVGNSQAVCPGTLNGLSVTGDAENQYQTLYKLYERCEVVMGNLEIVLTGHNADLSFLQWIREVTGYVLVAMNEFSTLPLPNLRVVRGTQAYDGKFAIFVMLNYNTNSSHALRQLRLTQLTEILSGGVYIEKNDKLCHMDTIDWRDIVRDRDAEIVVKDNGRSCPPCHEVCKGRCWGPGSEDCQTLTKTICAPQCNGHCFGPNPNQCCHDECAGGCSGPQDTDCFACRHFNDSGACVPRCPQPLVYNKLTFQLEPNPHTKYQYGGVCVASCPHNFVVDQTSCVRACPPDKMEVDKNGLKMCEPCGGLCPK
notes: also called H3^I-II V110A
B4: trx-hrg, thioredoxin-heregulin fusion with a C-terminal His and S-tag (ligand)
chain: SHLVKCAEKEKTFCVNGGECFMVKDLSNPSRYLCKCPNEFTGDRCQNYVMASFYKHLGIEF
notes: Made as in Landgraf et al. 1998; also called S-tagged hrg; immobilized hrg; not shown: thioredoxin; C-terminal His tag and S-tag
B5: HER3^I-II N44A (receptor, not shown: small tags and cut ends)
chain: SEVGNSQAVCPGTLNGLSVTGDAEAQYQTLYKLYERCEVVMGNLEIVLTGHNADLSFLQWIREVTGYVLVAMNEFSTLPLPNLRVVRGTQVYDGKFAIFVMLNYNTNSSHALRQLRLTQLTEILSGGVYIEKNDKLCHMDTIDWRDIVRDRDAEIVVKDNGRSCPPCHEVCKGRCWGPGSEDCQTLTKTICAPQCNGHCFGPNPNQCCHDECAGGCSGPQDTDCFACRHFNDSGACVPRCPQPLVYNKLTFQLEPNPHTKYQYGGVCVASCPHNFVVDQTSCVRACPPDKMEVDKNGLKMCEPCGGLCPK
notes: also called H3 I-II Mutant N44A

How the values were obtained:
[1] = target: T1, HER3-ECD^I-IV, soluble extracellular domains of recombinant HER3 purified from Chinese hamster ovary cells (human, UniProt P21860 20-643); assay: method not given; compared with the Kd of HER3-ECD^I-II (68 nM); form of hrg not stated
T1 construct: also called nonproteolyzed HER3-ECD^I-IV

[2] = target: HER3^II-CTD (residues 184-1342), transiently expressed on COS 7 cells (human, UniProt P21860 184-1342); assay: specific binding of radio-iodinated hrg to COS 7 cells transiently expressing the HER3 construct
Sequence of HER3^II-CTD (residues 184-1342), transiently expressed on COS 7 cells (P21860 184-1342 E560G/E1064G): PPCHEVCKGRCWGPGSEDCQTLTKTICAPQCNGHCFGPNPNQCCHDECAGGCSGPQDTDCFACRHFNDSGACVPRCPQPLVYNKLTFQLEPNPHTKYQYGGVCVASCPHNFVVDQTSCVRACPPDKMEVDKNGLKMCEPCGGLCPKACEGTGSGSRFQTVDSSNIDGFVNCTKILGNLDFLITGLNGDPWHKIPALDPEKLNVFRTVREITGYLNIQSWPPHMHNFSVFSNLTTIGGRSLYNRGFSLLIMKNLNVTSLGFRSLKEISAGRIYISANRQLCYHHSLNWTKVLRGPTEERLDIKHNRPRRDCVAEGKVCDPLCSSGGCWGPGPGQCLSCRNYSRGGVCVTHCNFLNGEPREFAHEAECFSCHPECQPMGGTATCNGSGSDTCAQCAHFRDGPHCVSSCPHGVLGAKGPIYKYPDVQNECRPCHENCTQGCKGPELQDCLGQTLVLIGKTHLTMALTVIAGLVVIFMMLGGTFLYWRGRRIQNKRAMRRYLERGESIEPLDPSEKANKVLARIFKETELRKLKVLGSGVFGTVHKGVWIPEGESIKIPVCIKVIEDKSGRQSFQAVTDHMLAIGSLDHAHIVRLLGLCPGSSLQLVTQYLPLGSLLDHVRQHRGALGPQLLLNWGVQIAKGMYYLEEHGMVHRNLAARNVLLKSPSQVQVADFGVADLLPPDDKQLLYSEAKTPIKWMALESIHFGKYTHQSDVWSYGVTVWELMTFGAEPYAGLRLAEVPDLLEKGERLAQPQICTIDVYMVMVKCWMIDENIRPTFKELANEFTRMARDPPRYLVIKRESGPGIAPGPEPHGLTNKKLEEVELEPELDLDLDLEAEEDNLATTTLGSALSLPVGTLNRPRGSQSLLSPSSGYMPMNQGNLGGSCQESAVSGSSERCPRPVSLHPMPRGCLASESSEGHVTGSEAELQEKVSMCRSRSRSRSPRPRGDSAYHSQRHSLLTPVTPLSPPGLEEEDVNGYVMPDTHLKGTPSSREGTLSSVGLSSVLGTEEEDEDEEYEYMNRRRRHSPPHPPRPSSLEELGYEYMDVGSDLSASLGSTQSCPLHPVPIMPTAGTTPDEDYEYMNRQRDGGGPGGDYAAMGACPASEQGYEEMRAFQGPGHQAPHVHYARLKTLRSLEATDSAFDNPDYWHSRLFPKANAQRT

[3] = target: HER3^FL E64A (residues 20-1342 with a mutation of E64A), transiently expressed on COS 7 cells (human, UniProt P21860 20-1342); assay: as above
HER3^I-IV E64A [4] = target: T2, HER3^I-IV E64A (human, UniProt P21860 20-643); assay: native gel mobility shift
T2 construct: also called H3^I-IV E64A
Protocol: (§1) FIG. 12. […] HER3^I-IV and the HER3^I-IV mutants were analyzed on a native Phast gel (10-15%) in the absence (−) and presence (+) of equimolar hrg. The HER3^{I-IV E64A} was also analyzed in the absence (lane 2) and presence (lane 4) of hrg. Formation of a hrg-HER3^I-IV complex is observed with HER3^I-IV, but not with […], B, HER3^I-IV and HER3^{I-IV E64A} were analyzed in a “pull down assay” in which S-tagged hrg was immobilized on S-protein resin (lanes 4-9) and HER3^I-IV could be specifically eluted with 1 μM hrg and detergent (lane 6 and 8), but HER3^{I-IV E64A} could not be eluted with PBS or 1 μM hrg (lanes 5 and 7). A small amount of HER3^{I-IV E64A} could be eluted with detergent (lane 9) which was probably due to some binding or non-specific interaction.
To determine the effects of cleavage of HER3^I-IV on its ability to bind hrg, a gel mobility shift assay was performed. […] (FIG. 12A).

[5] = target: T1, HER3-ECD^I-IV, soluble extracellular …; assay: method not given; given as the reference for the SPR value of HER3-ECD^I-II (68 nM, trx-hrg immobilized); form of hrg not stated
[6] = target: B4; assay: SPR, trx-hrg immobilized (68 nM) compared with HER3-ECD^I-IV (2.3 nM)
Protocol: (§2) Trx-hrg (13 μM) in MES buffer (100 mM pH 6.0) was immobilized on a BIAcore CM5 chip using standard N-hydroxysuccinimide/1-ethyl-3-(3-dimethylaminopropyl)carbodiimide amine-coupling chemistry. The surface of the chip was blocked with ethanolamine and could be regenerated with 5.0 M NaCl and washes with running buffer (PBS+surfactant). HER3-ECD^I-II (filtered through a 0.1-μm filter unit (Millipore, Bedford, Mass.)) in running buffer was applied to the chip at various concentrations (in triplicate) to determine the dissociation constant. Data were analyzed with the BIAevaluation software. Competition experiments were carried out using hrg at an equimolar concentration to HER3-ECD^I-II.
(§3) To further confirm that HER3-ECD^I-II binds hrg, we analyzed the interaction by SPR (BIAcore). Trx-hrg fusion protein was immobilized on a BIAcore chip for these measurements. […] This interaction could be inhibited by stoichiometric concentrations of hrg.

[7] = target: B4; assay: SPR (BIAcore), immobilized trx-hrg
[8] = target: B4; assay: SPR (BIAcore), immobilized trx-hrg
HER3^I-II N44A = target: B5; assay: SPR (BIAcore), immobilized trx-hrg
HER3^I-II E43A = target: T3, HER3^I-II E43A (human, UniProt P21860 20-329); assay: SPR (BIAcore), immobilized trx-hrg
T3 construct: also called H3 I-II Mutant E43A
T3 sequence (P21860 20-329 E43A): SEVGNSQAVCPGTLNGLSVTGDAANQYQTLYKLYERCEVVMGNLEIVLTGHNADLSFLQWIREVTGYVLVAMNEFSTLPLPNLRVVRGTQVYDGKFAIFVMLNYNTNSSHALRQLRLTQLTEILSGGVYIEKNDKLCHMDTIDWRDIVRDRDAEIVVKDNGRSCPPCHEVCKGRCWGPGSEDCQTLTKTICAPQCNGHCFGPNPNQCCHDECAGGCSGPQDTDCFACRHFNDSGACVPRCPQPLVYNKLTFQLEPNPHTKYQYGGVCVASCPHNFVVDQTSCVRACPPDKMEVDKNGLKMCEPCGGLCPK

HER3^I-II V66A = HER3^I-II V66A (human, UniProt P21860 20-329); assay: SPR (BIAcore), immobilized trx-hrg
HER3^I-II K51A = target: T4, HER3^I-II K51A (human, UniProt P21860 20-329); assay: SPR (BIAcore), immobilized trx-hrg
T4 construct: also called H3^I-II K51A

HER3^I-II V110A = target: B3; assay: SPR (BIAcore), immobilized trx-hrg
HER3^I-IV E64A [9] = target: T2, HER3^I-IV E64A; assay: pull-down on trx-hrg-coupled S-protein agarose
Protocol: as §1
To confirm that HER3^I-IVE64A has decreased binding affinity for hrg, we used a “pull down” assay in which we measured the HER3^I-IV and HER3^I-IVE64A that could be dissociated from immobilized thioredoxin-heregulin (trx-hrg) by the addition of hrg. Using trx-hrg coupled S-protein agarose, HER3^I-IV was eluted with hrg and detergent (FIG. 12B, lanes 6 and 8), but not with PBS (FIG. 12B, lane 4). No HER3^{I-IV E64A} could be recovered by elution with PBS, hrg or detergent (FIG. 12B, lanes 5, 7 and 9).

[10] = target: B2; assay: SPR (BIAcore), trx-hrg immobilized, HER3-ECD^I-II in solution
Protocol: as §2, §3

Kd [1]: 1.9 nM | binding result [2]: no binding | binding result [3]: no binding | binding result (HER3^I-IV E64A [4]): no binding (tested: 1:1 molar ratio) | Kd [5]: 2.3 nM
B1: hrg, 60-residue EGF-like domain of human heregulin beta1 (residues 177-237) (ligand)
chain: SHLVKCAEKEKTFCVNGGECFMVKDLSNPSRYLCKCPNEFTGDRCQNYVMASFYKHLGIEF
notes: also called I^25 hrg

Binder: B2
fold lower binding affinity than HER3-ECD^I-IV [6]: 30 fold

Binder: B3
fold increase in binding affinity (against HER3^I-II) [7]: 4 fold | fold increase in binding affinity (against HER3^I-II) [8]: 5 fold

Binder: B4
Kd (HER3^I-II N44A): 95.5 nM | Kd (HER3^I-II E43A): 63 nM | Kd (HER3^I-II V66A): 60.5 nM | Kd (HER3^I-II K51A): 63 nM | Kd (HER3^I-II V110A): 15.4 nM | binding result (HER3^I-IV E64A [9]): no binding | Kd [10]: 68 nM | koff [10]: 0.00727 s⁻¹ | kon [10]: 107000 M⁻¹ s⁻¹

Binder: B5
fold decrease in binding affinity (against HER3^I-II) [7]: 1.5 fold
